Measurements from paper PMC5051681.
One block for each substance: values may come before it.

How the values were obtained:
[1] = target: C1a - 10 nm - C2 SPASM biosensor (human) (UniProt P17252); test: FRET or BRET; change in heteroFRET after addition of free calcium against the concentration of C1a - 10 nm - C2; Hill binding model; half-maximal value taken as an estimate of the dissociation constant
PKC alpha C2 = PKC alpha C2 (UniProt P17252); settings: cited from earlier work
[2] = target: PKCα sensor (N-terminal mCer, C-terminal mCit) with a TEV protease site between the C2 and kinase domains (human) (UniProt P17252); test: dynamic light scattering; sensor pre-treated with TEV protease or BSA, or C2-mCit; relative increase in particle mass after 2 min with free calcium, matched concentration
[3] = target: regulatory domains of PKCα with mCer (N-terminal TEV product of the PKCα sensor cut between C2 and kinase) (human); test: as above

Kd [1]: 0.0611 µM
Substance: C1a - 10 nm - C2 SPASM biosensor (from UniProt P17252 32-100; P17252 158-292)

Substance: PKC alpha C1a (from UniProt P17252)
Kd (PKC alpha C2): 0.004 µM

mean particle size increase after free calcium (DLS, normalised) [2]: 5.61
Substance: PKCα sensor (N-terminal mCer, C-terminal mCit) with a TEV protease site between the C2 and kinase domains (from UniProt P17252 1-672) (natural protein)

mean particle size increase after free calcium (DLS, normalised) [3]: 2.61
Substance: regulatory domains of PKCα with mCer (N-terminal TEV product of the PKCα sensor cut between C2 and kinase) (domain or fragment)
